Source: paper PMC314469, “Protein Interaction Networks by Proteome Peptide Scanning” (PLoS Biology, 2004)

T1: Yhr016c SH3 (YSC84_YEAST), P32793
T1 chain: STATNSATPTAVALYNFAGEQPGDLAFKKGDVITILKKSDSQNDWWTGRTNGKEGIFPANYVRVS

T2: Rvs167 SH3 (RV167_YEAST), P39743
T2 chain: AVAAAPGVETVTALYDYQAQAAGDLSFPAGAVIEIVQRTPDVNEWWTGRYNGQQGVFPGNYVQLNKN

T3: Boi1 SH3 (BOI1_YEAST), P38041
T3 chain: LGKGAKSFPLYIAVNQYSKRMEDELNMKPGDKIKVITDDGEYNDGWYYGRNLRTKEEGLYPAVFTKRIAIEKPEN

T4: Boi2 SH3 (BOI2_YEAST), P39969
T4 chain: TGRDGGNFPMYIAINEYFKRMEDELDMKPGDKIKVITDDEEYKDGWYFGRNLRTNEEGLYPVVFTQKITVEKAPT

T5: Yfr024 SH3 (LSB3_YEAST), P43603
T5 chain: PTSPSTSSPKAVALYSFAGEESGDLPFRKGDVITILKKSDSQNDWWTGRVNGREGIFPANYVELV


Key:
Test in all cases: SPOT array
[1] = molecular target: T1, Yhr016c SH3 (YSC84_YEAST), P32793
[2] = molecular target: T2, Rvs167 SH3 (RV167_YEAST), P39743
[3] = molecular target: T3, Boi1 SH3 (BOI1_YEAST), P38041
[4] = molecular target: T4, Boi2 SH3 (BOI2_YEAST), P39969
[5] = molecular target: T5, Yfr024 SH3 (LSB3_YEAST), P43603

Binder | normalised SPOT signal, Boehringer light units (BLU); mean over the file's lines of this peptide [1] | normalised SPOT signal, Boehringer light units (BLU); mean over the file's lines of this peptide [2] | normalised SPOT signal, Boehringer light units (BLU); mean over the file's lines of this peptide [3] | normalised SPOT signal, Boehringer light units (BLU); mean over the file's lines of this peptide [4] | normalised SPOT signal, Boehringer light units (BLU); mean over the file's lines of this peptide [5]
DVYPHEPAKNGEGS [YER081W 311-324] | 223 | 44.3 | 98.3 | 37.8 | 125
DYNPPPPSRNSPIR [YJL204C 669-682] | 323 | 9.9 | 194 | 31.1 | 874
DSIPLEPKKAKHLM [YHR118C 82-95] | 206 | 33.7 | 389 | 26.5 | 141
DVLPAGPVRSLEGA [YCR102C 122-135] | 221 | 0 | 24.6 | 45.9 | 137
DPLPYSPLKLYDQK [YCR065W 382-395] | 216 | 62.6 | 58.9 | 134 | 117
DSLPKLPFRSWGQP [YBR132C 490-503] | 60200 | 16100 | 179 | 25.7 | 39100
DSLPFAPLRKVYEL [YBR056W 139-152] | 200 | 156 | 61.9 | 34.7 | 322
DVLPAGPVRSLEGV [YLR460C 130-143] | 0 | 32.7 | 28.2 | 44 | 4
DQAPSLPPKPNTQL [YCL008C 158-171] | 4710 | 32.3 | 54.8 | 72.2 | 17600
DYLPQHPHRTSSLP [YDR103W 109-122] | 172 | 109 | 17.6 | 33.4 | 206
DSPPQSPRRSSNSS [YKL185W 464-477] | 3410 | 41.3 | 309 | 15.6 | 15900
DSGPQRPKRTRAKG [YDL106C 73-86] | 4170 | 218 | 460 | 91.1 | 38900
DSIPVDPEKVVAIV [YBL015W 216-229] | 0 | 37.9 | 50 | 22.2 | 0
DRPPDVPRKIIVGR [YBL067C 301-314] | 358 | 92.5 | 96.5 | 62.3 | 2970
DYLPPVPEKNAGKQ [YDR322W 274-287] | 198 | 42.3 | 47.4 | 91.7 | 681

Further lines, results first:

normalised SPOT signal, Boehringer light units (BLU); mean over the file's lines of this peptide [1] | normalised SPOT signal, Boehringer light units (BLU); mean over the file's lines of this peptide [2] | normalised SPOT signal, Boehringer light units (BLU); mean over the file's lines of this peptide [3] | normalised SPOT signal, Boehringer light units (BLU); mean over the file's lines of this peptide [4] | normalised SPOT signal, Boehringer light units (BLU); mean over the file's lines of this peptide [5] | Binder
4310 | 651 | 1520 | 334 | 27600 | DSIPSRPQRRKSVL [YMR221C 258-271]
37 | 9.7 | 142 | 35.9 | 359 | DVIPKKPLKSAADK [YOL055C 314-327]
2400 | 3120 | 35500 | 11300 | 6750 | DYNPTIPPRSKDRP [YOL070C 274-287]
156 | 0 | 108 | 22.9 | 28.1 | DSDPNTPKKLSSPR [YNL238W 661-674]
73200 | 23600 | 76.3 | 61.9 | 27900 | DVPPQLPTRTKSGE [YOR042W 337-350]
1280 | 114 | 181 | 88.8 | 5150 | DQKPLVPIRIYGAI [YPR023C 316-329]
75.3 | 14.1 | 660 | 40.8 | 161 | DPHPEDPRRIYRIY [YNL021W 81-94]
